The target of test [1] is B type Insulin Receptor of islet cells (endogenous) (rat or mouse (not stated for the experiment)). The test is described as follows: cell-based or functional assay.
The target of test [2] is B type Insulin Receptor of HIT-T15 cells (endogenous) (hamster). The test is described as follows: cell-based or functional assay.

Turning to insulin (ligand), the βGK mRNA levels in pancreatic islets (FIG. 4A) in test [1] came to 50 µU per ml. The amount of exogenous insulin necessary to trigger βGK promoter activity (βGK promoter-driven GFP expression, HIT cells, FIG. 4B) in test [2] stood at 20 µU per ml.
